Measured values taken from patent US10428140B2, “Anti-EphA4 antibody” (EISAI R&D MANAGEMENT CO., LTD., priority 2015, dated 2019).
Where a chain is given by its changes, count along the chain named. One block for each molecule: values may come before it.

How the values were obtained:
Test in all cases: Selectivity ELISA of humanized antibodies for human Eph receptor
Assay type in all cases: binding
Settings in all cases: coated protein 1 nM
human EphB1 = target: T1, human EphB1 (Homo sapiens, UniProt P54762)
T1 construct: a protein of the extracellular region of each human Eph receptor fused with the SEAP protein and the His tag; made in house; host or cells: Expi293F cells (culture supernatant)
T1 sequence (P54762 18-540 limits assumed): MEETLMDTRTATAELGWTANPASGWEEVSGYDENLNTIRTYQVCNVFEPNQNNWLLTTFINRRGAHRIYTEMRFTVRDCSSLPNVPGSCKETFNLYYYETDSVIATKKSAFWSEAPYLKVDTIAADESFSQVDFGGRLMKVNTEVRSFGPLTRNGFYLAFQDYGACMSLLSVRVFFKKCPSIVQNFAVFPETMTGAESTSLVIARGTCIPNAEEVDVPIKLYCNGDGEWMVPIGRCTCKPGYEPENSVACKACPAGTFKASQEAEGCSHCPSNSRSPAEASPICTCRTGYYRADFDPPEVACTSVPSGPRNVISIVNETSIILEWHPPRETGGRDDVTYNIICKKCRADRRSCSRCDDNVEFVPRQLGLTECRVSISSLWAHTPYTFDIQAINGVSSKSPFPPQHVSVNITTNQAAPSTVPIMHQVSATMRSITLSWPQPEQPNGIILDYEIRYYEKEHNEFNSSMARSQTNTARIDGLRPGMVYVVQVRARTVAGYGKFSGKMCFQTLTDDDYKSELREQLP
Outline: (§1)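 Capture ELISA: anti-6-His coat, 1% BlockAce block, Eph ECD-SEAP-His (1 nM final, Expi293F supernatant) 1 h RT, humanized Ab 1 h RT, HRP anti-IgG 1 h RT, TMB, H2SO4 stop, A450.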

human EphB2 = target: T2, human EphB2 (Homo sapiens, UniProt P29323)
T2 construct: a protein of the extracellular region of each human Eph receptor fused with the SEAP protein and the His tag; made in house; host or cells: Expi293F cells
T2 sequence (P29323 19-543 limits assumed): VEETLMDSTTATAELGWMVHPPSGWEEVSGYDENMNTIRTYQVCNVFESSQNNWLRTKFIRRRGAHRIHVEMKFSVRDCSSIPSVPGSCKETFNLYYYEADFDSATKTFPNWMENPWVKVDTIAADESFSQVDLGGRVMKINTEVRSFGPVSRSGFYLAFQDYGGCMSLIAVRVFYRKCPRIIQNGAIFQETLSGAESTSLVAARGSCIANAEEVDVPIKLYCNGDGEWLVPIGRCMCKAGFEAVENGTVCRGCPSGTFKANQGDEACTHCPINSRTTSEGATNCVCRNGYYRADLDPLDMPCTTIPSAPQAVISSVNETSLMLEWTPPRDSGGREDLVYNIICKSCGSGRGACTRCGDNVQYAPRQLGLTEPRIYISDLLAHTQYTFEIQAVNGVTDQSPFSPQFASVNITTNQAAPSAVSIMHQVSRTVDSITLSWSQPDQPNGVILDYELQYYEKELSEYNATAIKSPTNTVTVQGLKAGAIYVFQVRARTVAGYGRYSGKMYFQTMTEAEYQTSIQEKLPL
Outline: as §1

human EphB3 = target: T3, human EphB3 (Homo sapiens, UniProt P54753)
T3 construct: a protein of the extracellular region of each human Eph receptor fused with the SEAP protein and the His tag; made in house; host or cells: Expi293F cells
T3 sequence (P54753 34-559 limits assumed): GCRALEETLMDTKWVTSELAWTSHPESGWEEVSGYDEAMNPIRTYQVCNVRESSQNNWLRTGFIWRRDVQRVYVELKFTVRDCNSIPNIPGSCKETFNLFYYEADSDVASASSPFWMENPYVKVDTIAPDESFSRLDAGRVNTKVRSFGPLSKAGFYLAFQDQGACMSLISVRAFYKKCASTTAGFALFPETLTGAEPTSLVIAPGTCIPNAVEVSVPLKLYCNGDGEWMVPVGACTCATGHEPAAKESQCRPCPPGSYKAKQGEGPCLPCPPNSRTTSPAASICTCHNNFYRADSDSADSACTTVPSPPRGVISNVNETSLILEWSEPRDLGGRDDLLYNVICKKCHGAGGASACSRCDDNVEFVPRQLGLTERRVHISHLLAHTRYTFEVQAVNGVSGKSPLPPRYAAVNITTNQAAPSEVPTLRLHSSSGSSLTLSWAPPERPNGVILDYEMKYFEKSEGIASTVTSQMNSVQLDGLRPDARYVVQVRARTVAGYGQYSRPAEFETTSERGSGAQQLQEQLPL
Outline: as §1

human EphA5 = target: T4, human EphA5 (Homo sapiens, UniProt P54756)
T4 construct: a protein of the extracellular region of each human Eph receptor fused with the SEAP protein and the His tag; made in house; host or cells: Expi293F cells (culture supernatant)
Outline: as §1

T4 sequence (P54756 25-573 limits assumed): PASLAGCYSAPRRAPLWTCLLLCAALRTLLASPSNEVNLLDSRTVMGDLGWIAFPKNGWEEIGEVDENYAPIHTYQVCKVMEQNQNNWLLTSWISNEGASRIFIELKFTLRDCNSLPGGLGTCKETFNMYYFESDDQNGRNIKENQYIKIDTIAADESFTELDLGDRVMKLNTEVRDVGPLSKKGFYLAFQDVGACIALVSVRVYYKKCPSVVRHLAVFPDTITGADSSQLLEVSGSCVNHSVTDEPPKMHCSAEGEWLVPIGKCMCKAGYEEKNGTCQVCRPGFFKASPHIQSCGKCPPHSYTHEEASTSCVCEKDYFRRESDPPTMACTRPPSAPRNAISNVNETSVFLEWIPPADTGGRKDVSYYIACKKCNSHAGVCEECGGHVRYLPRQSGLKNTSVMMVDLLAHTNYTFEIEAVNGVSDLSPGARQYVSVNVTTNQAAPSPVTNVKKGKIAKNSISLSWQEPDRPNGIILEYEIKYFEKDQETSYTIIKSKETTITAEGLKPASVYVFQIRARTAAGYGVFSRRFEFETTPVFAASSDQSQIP

hEphB1-SEAP-: absorbance at 450 nm, percentage with respect to hEphA4-SEAP-His as 100% (human EphB1): 5.7% | hEphB2-SEAP-: absorbance at 450 nm, percentage with respect to hEphA4-SEAP-His as 100% (human EphB2): 5.7% | hEphB3-SEAP-: absorbance at 450 nm, percentage with respect to hEphA4-SEAP-His as 100% (human EphB3): 5.9% | hEphA5-SEAP-: absorbance at 450 nm, percentage with respect to hEphA4-SEAP-His as 100% (human EphA5): 5.7%
B2: 86 (antibody, V domains shown)
VL: DIQMTQSPSSLSASVGDRVTITCRASENIYRNLAWYQQKPGKAPKLLLYAATNLADGVPSRFSGSGSGTDYTLTISSLQSEDFATYYCQHFWGTPWTFGQGTKVEIK
VH: QIQLVQSGSELKKPGASVKVSCKASGYTFTDYSMHWVRQAPGQGLKWMGWINTETGEPTYADDFKGRFVFSLDTSVSTAYLQISSLKAEDTAVYYCARIPLYYYGSRYWYFDVWGQGTTVTVSS
modifications: constant regions without entry; synthetic humanized antibody light chain variable region sequence; synthetic humanized antibody heavy chain variable region sequence

hEphB1-SEAP-: absorbance at 450 nm, percentage with respect to hEphA4-SEAP-His as 100% (human EphB1): 5.7% | hEphB2-SEAP-: absorbance at 450 nm, percentage with respect to hEphA4-SEAP-His as 100% (human EphB2): 5.7% | hEphB3-SEAP-: absorbance at 450 nm, percentage with respect to hEphA4-SEAP-His as 100% (human EphB3): 5.7% | hEphA5-SEAP-: absorbance at 450 nm, percentage with respect to hEphA4-SEAP-His as 100% (human EphA5): 5.8%
B3: 89 (antibody, V domains shown)
VL: B2 VL with K45Q, S80P
VH: B2 VH with D62Q, D63G, K65T
modifications: constant regions without entry; synthetic humanized antibody light chain variable region sequence; synthetic humanized antibody heavy chain variable region sequence

hEphB1-SEAP-: absorbance at 450 nm, percentage with respect to hEphA4-SEAP-His as 100% (human EphB1): 5.0% | hEphB2-SEAP-: absorbance at 450 nm, percentage with respect to hEphA4-SEAP-His as 100% (human EphB2): 5.1% | hEphB3-SEAP-: absorbance at 450 nm, percentage with respect to hEphA4-SEAP-His as 100% (human EphB3): 5.2% | hEphA5-SEAP-: absorbance at 450 nm, percentage with respect to hEphA4-SEAP-His as 100% (human EphA5): 5.0%
B4: 85 (antibody, V domains shown)
VL: B2 VL
VH: B2 VH with I2V
modifications: constant regions without entry; synthetic humanized antibody light chain variable region sequence; synthetic humanized antibody heavy chain variable region sequence

hEphB1-SEAP-: absorbance at 450 nm, percentage with respect to hEphA4-SEAP-His as 100% (human EphB1): 6.1% | hEphB2-SEAP-: absorbance at 450 nm, percentage with respect to hEphA4-SEAP-His as 100% (human EphB2): 6.0% | hEphB3-SEAP-: absorbance at 450 nm, percentage with respect to hEphA4-SEAP-His as 100% (human EphB3): 6.3% | hEphA5-SEAP-: absorbance at 450 nm, percentage with respect to hEphA4-SEAP-His as 100% (human EphA5): 5.9%
B6: 88 (antibody, V domains shown)
VL: B2 VL with K45Q, S80P
VH: B2 VH with I2V, D62Q, D63G, K65T
modifications: constant regions without entry; synthetic humanized antibody light chain variable region sequence; synthetic humanized antibody heavy chain variable region sequence

hEphB1-SEAP-: absorbance at 450 nm, percentage with respect to hEphA4-SEAP-His as 100% (human EphB1): 5.3% | hEphB2-SEAP-: absorbance at 450 nm, percentage with respect to hEphA4-SEAP-His as 100% (human EphB2): 5.4% | hEphB3-SEAP-: absorbance at 450 nm, percentage with respect to hEphA4-SEAP-His as 100% (human EphB3): 5.5% | hEphA5-SEAP-: absorbance at 450 nm, percentage with respect to hEphA4-SEAP-His as 100% (human EphA5): 5.4%
B7: 87 (antibody, V domains shown)
VL: B2 VL with K45Q, S80P
VH: B2 VH with I2V, K46E, D62Q, D63G, K65T
modifications: constant regions without entry; synthetic humanized antibody light chain variable region sequence; synthetic humanized antibody heavy chain variable region sequence

Second part, the molecule before the results:

B1: 69 (antibody, V domains shown)
VH: B2 VH
VL: B2 VL with L48V, S80P
modifications: synthetic humanized antibody heavy chain variable region sequence; synthetic humanized antibody light chain variable region sequence
hEphB1-SEAP-: absorbance at 450 nm, percentage with respect to hEphA4-SEAP-His as 100% (human EphB1): 5.6% | hEphB2-SEAP-: absorbance at 450 nm, percentage with respect to hEphA4-SEAP-His as 100% (human EphB2): 5.5% | hEphB3-SEAP-: absorbance at 450 nm, percentage with respect to hEphA4-SEAP-His as 100% (human EphB3): 5.9% | hEphA5-SEAP-: absorbance at 450 nm, percentage with respect to hEphA4-SEAP-His as 100% (human EphA5): 5.6%

B5: 83 (antibody, V domains shown)
VL: B2 VL
VH: B2 VH with D62Q, D63G, K65T
modifications: constant regions without entry; synthetic humanized antibody light chain variable region sequence; synthetic humanized antibody heavy chain variable region sequence
hEphB1-SEAP-: absorbance at 450 nm, percentage with respect to hEphA4-SEAP-His as 100% (human EphB1): 5.6% | hEphB2-SEAP-: absorbance at 450 nm, percentage with respect to hEphA4-SEAP-His as 100% (human EphB2): 5.6% | hEphB3-SEAP-: absorbance at 450 nm, percentage with respect to hEphA4-SEAP-His as 100% (human EphB3): 5.7% | hEphA5-SEAP-: absorbance at 450 nm, percentage with respect to hEphA4-SEAP-His as 100% (human EphA5): 5.8%

B8: 84 (antibody, V domains shown)
VL: B2 VL
VH: B2 VH with I2V, K46E
modifications: constant regions without entry; synthetic humanized antibody light chain variable region sequence; synthetic humanized antibody heavy chain variable region sequence
hEphB1-SEAP-: absorbance at 450 nm, percentage with respect to hEphA4-SEAP-His as 100% (human EphB1): 5.2% | hEphB2-SEAP-: absorbance at 450 nm, percentage with respect to hEphA4-SEAP-His as 100% (human EphB2): 4.9% | hEphB3-SEAP-: absorbance at 450 nm, percentage with respect to hEphA4-SEAP-His as 100% (human EphB3): 4.8% | hEphA5-SEAP-: absorbance at 450 nm, percentage with respect to hEphA4-SEAP-His as 100% (human EphA5): 5.0%

B9: 82 (antibody, V domains shown)
VL: B2 VL
VH: B2 VH with I2V, D62Q, D63G, K65T
modifications: constant regions without entry; synthetic humanized antibody light chain variable region sequence; synthetic humanized antibody heavy chain variable region sequence
hEphB1-SEAP-: absorbance at 450 nm, percentage with respect to hEphA4-SEAP-His as 100% (human EphB1): 5.4% | hEphB2-SEAP-: absorbance at 450 nm, percentage with respect to hEphA4-SEAP-His as 100% (human EphB2): 5.6% | hEphB3-SEAP-: absorbance at 450 nm, percentage with respect to hEphA4-SEAP-His as 100% (human EphB3): 5.6% | hEphA5-SEAP-: absorbance at 450 nm, percentage with respect to hEphA4-SEAP-His as 100% (human EphA5): 6.5%

B10: 81 (antibody, V domains shown)
VL: B2 VL
VH: B2 VH with I2V, K46E, D62Q, D63G, K65T
modifications: constant regions without entry; synthetic humanized antibody light chain variable region sequence; synthetic humanized antibody heavy chain variable region sequence
hEphB1-SEAP-: absorbance at 450 nm, percentage with respect to hEphA4-SEAP-His as 100% (human EphB1): 4.9% | hEphB2-SEAP-: absorbance at 450 nm, percentage with respect to hEphA4-SEAP-His as 100% (human EphB2): 5.0% | hEphB3-SEAP-: absorbance at 450 nm, percentage with respect to hEphA4-SEAP-His as 100% (human EphB3): 4.9% | hEphA5-SEAP-: absorbance at 450 nm, percentage with respect to hEphA4-SEAP-His as 100% (human EphA5): 4.9%
